Experimental findings from US20210102195A1 (TWIST BIOSCIENCE, published 2021) are described below.

The target of assay [1] is T1, CRTH2R (UniProt Q9Y5Y4 1-395, limits assumed).
T1 sequence (looked up): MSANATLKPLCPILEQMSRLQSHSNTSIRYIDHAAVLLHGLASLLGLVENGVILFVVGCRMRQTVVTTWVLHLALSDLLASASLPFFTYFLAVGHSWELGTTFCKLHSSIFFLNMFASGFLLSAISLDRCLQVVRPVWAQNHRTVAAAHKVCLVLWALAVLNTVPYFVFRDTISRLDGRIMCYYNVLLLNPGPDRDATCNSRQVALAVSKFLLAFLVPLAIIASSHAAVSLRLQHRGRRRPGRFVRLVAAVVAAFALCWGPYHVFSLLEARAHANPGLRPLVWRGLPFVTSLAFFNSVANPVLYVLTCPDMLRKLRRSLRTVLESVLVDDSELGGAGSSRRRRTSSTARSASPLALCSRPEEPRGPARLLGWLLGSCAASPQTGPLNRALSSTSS
As to the kind of experiment: cell-based or functional assay.

Assay [2] addresses T1, CRTH2R. As to the kind of experiment: flow cytometry (MFI), titration 0.05-100 nM on CRTH2R cells against parent cells; no legend on the panel: grey curve and grey EC50 taken as the CRTH2R cells, black (ND) as the parent cells. (In general: In flow cytometry, cells or beads pass a laser one at a time.)
The target in assay [3] is T2, hCRTH2R (human, UniProt Q9Y5Y4 1-395).
T2 construct: whole, on cells; h is read as human
T2 sequence (looked up): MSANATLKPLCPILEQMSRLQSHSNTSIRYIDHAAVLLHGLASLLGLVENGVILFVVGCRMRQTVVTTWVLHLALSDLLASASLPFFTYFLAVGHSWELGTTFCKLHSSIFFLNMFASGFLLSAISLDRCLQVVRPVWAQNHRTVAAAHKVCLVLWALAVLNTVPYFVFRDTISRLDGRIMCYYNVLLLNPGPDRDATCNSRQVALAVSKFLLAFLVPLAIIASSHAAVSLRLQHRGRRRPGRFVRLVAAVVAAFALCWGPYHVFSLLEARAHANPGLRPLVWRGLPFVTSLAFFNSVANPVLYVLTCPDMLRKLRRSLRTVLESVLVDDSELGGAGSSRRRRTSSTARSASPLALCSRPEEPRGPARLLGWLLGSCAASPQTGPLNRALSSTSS
As to the kind of experiment: flow cytometry (MFI) cell binding titration; number in grey print, taken with the upper grey curve; the sheet does not label the cell lines of the two curves.

In assay [4] the target is T2, hCRTH2R. As to the kind of experiment: flow cytometry (MFI) cell binding titration, upper grey curve; cell lines not labelled on the sheet.
The target of assay [5] is T2, hCRTH2R. As to the kind of experiment: cell-based or functional assay.
In assay [6] the target is T2, hCRTH2R. As to the kind of experiment: flow cytometry (MFI) cell binding titration; number in grey print, taken with the upper grey curve; the sheet does not label the cell lines of the two curves. This is another data set of the same source.
The target of assay [7] is T2, hCRTH2R. As to the kind of experiment: cell-based or functional assay. This is another data set of the same source.
The target in assay [8] is T2, hCRTH2R. As to the kind of experiment: cell-based or functional assay. The source holds these as a separate data set.
In assay [9] the target is T2, hCRTH2R. As to the kind of experiment: flow cytometry (MFI) cell binding titration; number in grey print, taken with the upper grey curve; the sheet does not label the cell lines of the two curves. This is another data set of the same source.
Assay [10] concerns the target T1, CRTH2R. As to the kind of experiment: flow cytometry (MFI), CHO CRTH2R-positive cells against parental CHO cells; same panel as in FIG. 15C; grey = CRTH2R cells, black = parental cells (no legend on the panel). The procedure: (§1) Cell binding of anti-CRTH2R antibodies was determined by testing on CHO CRTH2R-positive cells (GFP+) and parental CHO cells (GFP−), comparing parental negative and target positive cells to rule out false-positives. Antibodies as listed in Table 14A were titrated starting at 100 nM (15 ug/mL) with 3-fold titrations, for a total of 8 points. Two antibodies (gPCR-51 and gPCR-52) were used as a positive control.

Assay [11] concerns the target T1, CRTH2R. As to the kind of experiment: cell-based or functional assay. The source holds these as a separate data set.
The target in assay [12] is T1, CRTH2R. As to the kind of experiment: flow cytometry (MFI), CHO CRTH2R-positive cells against parental CHO cells, 3-fold titration from 100 nM; grey = CRTH2R cells, black = parental cells (no legend on the panel). The procedure: as §1
In assay [13] the target is T1, CRTH2R. As to the kind of experiment: flow cytometry (MFI), CHO CRTH2R-positive cells against parental CHO cells; same panel as in FIG. 15B; grey = CRTH2R cells, black = parental cells (no legend on the panel). The procedure:
as §1

Assay [14] concerns the target T3, human CD3 epsilon (human, UniProt P07766 23-126, limits assumed).
T3 construct: also called hCD3; hCD3 epsilon
As to the kind of experiment: affinity of IgG; method not stated; human CD3 epsilon.

In assay [15] the target is T1, CRTH2R. As to the kind of experiment: flow cytometry (MFI), CHO CRTH2R-positive cells against parental CHO cells; same panel as in FIG. 15E; grey = CRTH2R cells, black = parental cells (no legend on the panel). The procedure:
as §1

Where two headings read alike, the source gives them in different places.

T3 sequence (P07766 23-126 limits assumed): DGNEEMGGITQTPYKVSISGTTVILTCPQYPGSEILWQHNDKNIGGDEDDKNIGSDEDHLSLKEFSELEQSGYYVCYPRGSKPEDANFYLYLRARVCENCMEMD

B1: CRTH2-41-51 (Fc fusion, not shown: a dimerising Fc or GST)
chain: EVQLVESGGGLVQPGGSLRLSCAASGGIFRFNAMGWFRQAPGKERELVAGISGSGGDTYYADSVKGRFTISADNSKNTAYLQMNSLKPEDTAVYYCAAFRGIMRPDWGQGTLVTVSS
The term EC50 denotes the concentration that produces a half-maximal response. Consider B1, for which the “IC50 fold diff. of the PGD2 dose response in the CRTH2 DiscoverX allosteric cAMP assay (+ CRTH2-41-51-VHH against + no Ab)” value in [1] came to 2.18 fold. Also, the concentration giving a half-maximal response (EC50) in assay [2] was 0.181 nM.

B2: CRTH2-48-3 (antibody, V domains shown)
VH: EVQLVESGGGLVQAGGSLRLSCAASGSIFRINAMGWFRQAPGKEREGVAAINNFGTTKYADSVKGRFTISADNAKNTVYLQMNSLKPEDTAVYYCAAVRWGPRNDDRYDWGQGTQVTVSS
VL: DIQMTQSPSSLSASVGDRVTITCRASQSISSDLNWYQQKPGKAPKLLIYFASGLQSGVPSRFSGSGSGTDFTLTISSLQPEDFATYYCQQSYSSPLTFGGGTKVEIKR
notes: CRTH2R immunoglobulin (IgG); also called CRTH2-48-03
The term EC50 (read off the curve) denotes the concentration that produces a half-maximal response. Regarding B2, the EC50 in [3] is 0.579 nM. Besides, in assay [4], the “EC50 (read off the curve)” value was about 2 nM. Also, the “IC50 of PGD2 in the CRTH2 DiscoverX cAMP assay after 200nM IgG pre-incubation (+ no Ab: 0.2487), the axis reads PGD2” value in [5] was 0.356 nM.

B3: CRTH2-48-21 (antibody, V domains shown)
VH: EVQLVESGGGLVQAGGSLRLSCAASGSFFSINAMGWFRQAPGKEREFVAGITRSGVSTSYADSVKGRFTISADNAKNTVYLQMNSLKPEDTAVYYCAAHRIVVGGTSVGDWRWGQGTQVTVSS
VL: DIQMTQSPSSLSASVGDRVTITCRTSQSISNYLNWYQQKPGKAPKLLIYATSSLESGVPSRFSGSGSGTDFTLTISSLQPEDFATYYCQQSYSTLLTFGGGTKVEIKR
notes: CRTH2R immunoglobulin (IgG)
In the case of B3, the EC50 in [6] amounted to 1.32 nM. Further, the “IC50 of PGD2 in the CRTH2 DiscoverX cAMP assay after 200nM IgG pre-incubation (+ no Ab: 0.4559), the axis reads PGD2” value in assay [7] was 0.567 nM.

B4: CRTH2-48-27 (antibody, V domains shown)
VH: EVQLVESGGGLVQAGGSLRLSCAASGSIFHINAMGWFRQAPGKEREGVAAINNFGTTKYADSVKGRFTISANNAKNTVYLQMNSLKPEDTAVYYCAAVRWGPRNDDRYDWGQGTLVTVSS
VL: DIQMTQSPSSLSASVGDRVTITCRASQSISRYLHWYQQKPGKAPKLLIYGASRLESGVPSRFSGSGSGTDFTLTISSLQPEDFATYYCRQSYSTPWTFGGGTKVEIKR
notes: CRTH2R immunoglobulin (IgG)
With B4, the “IC50 of PGD2 in the CRTH2 DiscoverX cAMP assay after 200nM IgG pre-incubation (+ no Ab: 0.4559), the axis reads PGD2” value in assay [8] stood at 0.407 nM. Moreover, a half-maximal effect in [9] (EC50) was put at 0.859 nM.

B5: CRTH2-32 (antibody, V domains shown)
VH: QVQLVESGGGVVQPGRSLRLSCAASGFTFSKHGMHWVRQAPGKGLEWVAFISYEGSEKYYADSVKGRFTISRDNSKNTLYLQMNSLRAEDTAVYYCARDMYYDFHYSTVGATYYYYLGSETEVVPADDAFDIWGQGTLVTVSS
VL: QSALTQPASVSGSPGQSITISCTGTSSGVGGYDYVSWYQQHPGKAPKLMIYDDNNRPSGVSNRFSGSKSGNTASLTISGLQAEDEADYYCSSYTGSSTLYVFGGGTKLTVL
notes: CRTH2R IgG
Turning to B5, the EC50 in assay [10] and in assay [12] was 12.4 nM each time. In addition, in assay [11], the “IC50 fold difference of the PGD2 dose response (cAMP) with 100 nM IgG” value (from here on “IC50 fold difference”) is over 2 fold.

B6: CRTH2-27 (antibody, V domains shown)
VH: QVQLVESGGGVVQPGRSLRLSCAASGFTFDNYGMHWVRQAPGKGLEWVAVISYEGSNKKYADSVKGRFTISRDNSKNTLYLQMNSLRAEDTAVYYCARDMYYDFGSIYGEDVVGELPEVVPADDAFDIWGQGTLVTVSS
VL: QSALTQPASVSGSPGQSITISCTGTSNDVGAYNFVSWYQQHPGKAPKLMIYDISNRPSGVSNRFSGSKSGNTASLTISGLQAEDEADYYCSSYTRSNTRVFGGGTKLTVL
notes: CRTH2R IgG
Take B6: the “IC50 fold difference” value in assay [11] was over 2 fold. Further, the EC50 in [13] and in assay [12] was 42 nM in each case.

B7: CD3-56-05 (antibody, V domains shown)
VH: EVQLLESGGGLVQPGGSLRLSCAASGFTFSSYAMNWVRQAPGKGLEWVSAVSGSGGRTYYADSVKGRFTISRDNSKNTLYLQMNSLRAEDTAVYYCARERATTLDYWGQGTLVTVSS
VL: DIQMTQSPSSLSASVGDRVTITCRASQTIYSHLNWYQQKPGKAPKLLIYVASRLQSGVPSRFSGSGSGTDFTLTISSLQPEDFATYYCQQSFSTSWTFGGGTKVEIK
notes: IgG; also called CD3-56-5
Usually Kd stands for a measure of binding affinity in units of concentration. A high value points to weaker binding. For B7, in assay [14], the Kd is 67 nM. This counts as double-digit nanomolar.

B8: CRTH2-50 (antibody, V domains shown)
VH: QVQLVQSGAEVKKPGSSVKVSCKASGGTFSSYALSWVRKAPGQGLEWMGGTIPIFGTVNYAQKFQGRVTITADESTSTAYMELSSLRSEDTAVYYCARANQHFTRVIGQPSPAVPSRGYIYHGYHYYGMDVWGQGTLVTVSS
VL: QSALTQPASVSGSPGQSITISCTGTSSDIGGYNFVSWYQQHPGKAPKLMIYDVSNRPQGVSNRFSGSKSGNTASLTISGLQAEDEADYYCSSYTSSNTYVVFGGGTKLTVL
notes: CRTH2R IgG
With B8, the “IC50 fold difference” value in [11] is over 2 fold. Besides, the EC50 in assay [15] and in [12] was 19.6 nM in each case.

B9: CRTH2-9 (antibody, V domains shown)
VH: QVQLVQSGAEVKKPGSSVKVSCKASGGTFSSYAISWVRQAPGQGLEWMGGIIPIFGTANYAQKFQGRVTITADESTSTAYMELSSLRSEDTAVYYCARDMYYDFWLGDQSTGSLIGAEVVPADDAFDIWGQGTLVTVSS
VL: QSVLTQPPSVSAAPGQKVTISCSGSTSNIGNNYVSWYQQLPGTAPKLLIYENDERPSGIPDRFSGSKSGTSATLGITGLQTGDEADYYCATWDTRLSAVVFGGGTKLTVL
notes: CRTH2R IgG
For the molecule B9, in assay [11], the “IC50 fold difference” value is over 2 fold and the “antagonist activity in PGD2-induced cAMP assay at 33 nM IgG” value was over 20%. In addition, the EC50 in assay [13] is 14.9 nM. In assay [12], the EC50 stood at 14.9 nM.
